Measured values published in patent US20200368361A1.
Numbering of substitutions follows the chain as printed. Names and notes keep the numbering of the source.

B1: H1H21227N-N297Q (antibody, human IgG1, V domains shown)
VH: QVQLVQSGAEVKKPGASVKVSCKVSGYTLTELSIHWVRQVPGKGLEWMGGFDPEEGETIFAQEFRDRVTLTEDTSPDTAYMELSSLKSEDAAVYYCTTPRYCNNGICYDYWGQGTLVTVSS
VL: DIQMTQSPSSLSASVGDRVTITCRASQSISNYLNWYQQKPGKAPKLLIYTASSLQSGVPSRFSGSGSGTDFTLTISSLQTEDFATYYCQQSYSNFPITFGQGTRLEIKR
B2: H1H21231N (antibody, human IgG1, V domains shown)
VH: EVQLVESGGGLVQPGGSLRLSCAASGFTFSDHYMDWVRQAPGKGLEWVGRTRNKANSHTTEYTASVTGRFTISRDDSRNSLYLQMNSLKTEDTAVYYCVRAGIIGTLFDYWGQGTLVTVSS
VL: B1 VL with S7F, N31S, Y32F, Y36F, L46F, T50A, T80P, N94S, F95P
B3: H1H21231N-N297Q (antibody, human IgG1, V domains shown)
VH: B2 VH
VL: B1 VL with S7F, N31S, Y32F, Y36F, L46F, T50A, T80P, N94S, F95P
B4: H1H21227N (antibody, human IgG1, V domains shown)
VH: B1 VH
VL: B1 VL
B5: H1H21227N-N297D (antibody, human IgG1, V domains shown)
VH: B1 VH
VL: B1 VL
B6: H1H27729P-N297Q (antibody, human IgG1, V domains shown)
VH: QVQLVESGGGLVKPGGSLRLSCAASGFIFSDYYMSWIRQAPGKGLEWVSYISSSGTTIYGDSVKGRFTMSRDNAKNSLYLQMNSLRAEDTAVYYCARNYALFDYWGQGTLVTVSS
VL: DIQMTQSPSSLSASVGDRVTITCQASQDISKYLNWYQQKPGKAPKLLIYYTSNLETGVPSRFSGSGSGTDFTFTISSLQPEDIATYYCHQSDYLPFTFGPGTKVDIKR
B7: H2aM21229N (antibody, mouse IgG2a, V domains shown)
VH: EVQLVESGGGLVKPGGSLRLSCAASGFTFSRYSMNWVRQAPGKGLEWVSSISSSSSYIYYGDTVKGRFTISRDNAKKSLYLQMNSLRAEDTAVYYCVRDRGQLVLYFDYWGQGTLVTVSS
VL: DIQMTQSPASLSTSIRDRVTITCRASLSISSFLNWFQQRPGKAPKLLIYVASNLQSGVPSRFSDSGSGTDFTLTISSLQPEDFATYYCQQNYSTPPITFGQGTRLEIK
B8: H1H21234N-N297Q (antibody, human IgG1, V domains shown)
VH: QVQLQESGPGLVKPSETLSLTCTVTGGSISRNYWSWIRQPPGKGLEWIGYIYYSGSIDYNPSLKSRVTISVDTSKNQFSLKLSSMTAADTAVYYCARDRWNWKYGMDVWGQGTTVIVSS
VL: EIVLTQSPGTLSLSPGERATLSCRASQTVRNNYLAWYHQKPGQAPRLLIYGASSRATGIPDRFSGSGSGTDFTLTISRLEPEDFTVYYCHQYGNSPWTFGQGTKMEIKR
B9: H1H21234N (antibody, human IgG1, V domains shown)
VH: B8 VH
VL: B8 VL
B10: H2aM25695N (antibody, mouse IgG2a, V domains shown)
VH: B8 VH with D58N, T73M, S83N, M85V
VL: B8 VL with N32S, T85A, H90Q, N94S, P96Y
B11: H1H27739P-N297Q (antibody, human IgG1, V domains shown)
VH: EVQLVESGGGLVQPGGSLRLSCTASGFTFSSYAMSWVRQAPGKGLEWVSAISGTGSSTYFTDSVKGRFAISRDNSKNTLYLQMNSLRAEDTAVYYCAKDGEWLSTVTLFDYWGQGTLVTVSS
VL: EIVMTQSPATLSVSPGERATLSCRASQSVSSNLAWYQQKPGQAPRLLIYGASTRATGIPARFSGSGSGTDFTLTISSLQSEDFALYYCQQYFIWPPHPTFGPGTKVDIKR
B12: H1H27747P-N297Q (antibody, human IgG1, V domains shown)
VH: QVQLVESGGAVVQPGRSLRLSCAASGFTFSYYGMHWVRQAPGKGLEWVAVISYDGSKKYYADSVKGRFTISRDNSKNTLYLQMNSLRAEDTAVYYCAKDLTVDFYYGMDVWGQGTTVTVSS
VL: DIQMTQSPSSVSASVGDRVTITCRASQGISSWLAWYQQKPGKAPKLLIYATSSLQSGAPSRFSGSGSGTDFTLTISSLQPEDFATYFCQQANSFPYTFGQGTKLEIKR
B13: H1H27754P-N297Q (antibody, human IgG1, V domains shown)
VH: EVQLVESGGGLVQPGGSLRLSCAASGFTFRTYAMTWVRQAPGKGLDWVSAITGDGGNTYYADSVKGRFTISRDNSKNTLYLQMNSLRAEDTAIYYCAKDQRFSFALYYFDYWGQGTLVTVSS
VL: B12 VL with K42N, T51A, S52F, A58V, F87Y, S93N, Y96W, L104V
B14: H1H27734P-N297Q (antibody, human IgG1, V domains shown)
VH: EVQLVESRGGLVQPGGSLRLSCAASGFTFSSYAMSWVRQAPGKGLEWVSAISGSGGSTFYADSVKGRFTISRDNSKNTVYLQMNSLRAEDTAVYYCAKALVLRFLEWLGDYWGQGTLVTVSS
VL: DIQMTQSPSTLSASVGDRVTITCRASQSISSWLAWFQQKPGKAPKLLIYKASSLESGVPSRFSGSGSGTEFTLTISSLQPDDFATYYCQQYKSYWTFGQGTKVEIKR

These binders were tested against endogenously expressed human MSR1 on PMA-treated THP-1 cells (human) (UniProt P21757) (assay: ECL cell binding, PMA-treated THP-1).
Sequence of endogenously expressed human MSR1 on PMA-treated THP-1 cells (human) (P21757 whole entry): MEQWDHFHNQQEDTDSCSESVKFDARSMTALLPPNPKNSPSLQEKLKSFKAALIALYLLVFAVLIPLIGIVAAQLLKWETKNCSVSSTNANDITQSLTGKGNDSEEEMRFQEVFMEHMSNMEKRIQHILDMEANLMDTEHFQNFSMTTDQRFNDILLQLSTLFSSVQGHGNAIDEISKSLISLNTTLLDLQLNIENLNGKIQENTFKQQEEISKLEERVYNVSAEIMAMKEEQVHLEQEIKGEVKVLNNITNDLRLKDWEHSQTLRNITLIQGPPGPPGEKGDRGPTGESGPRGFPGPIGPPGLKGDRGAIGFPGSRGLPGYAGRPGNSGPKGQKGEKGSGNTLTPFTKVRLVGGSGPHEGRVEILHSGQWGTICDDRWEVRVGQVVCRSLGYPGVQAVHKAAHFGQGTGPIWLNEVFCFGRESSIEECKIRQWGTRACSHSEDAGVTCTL

binding signal ratio to isotype control (11 nM) | Binder
5 fold | B1
42 fold | B2
45 fold | B3
7 fold | B4
6 fold | B5
8 fold | B6
56 fold | B7
25 fold | B8
18 fold | B9
8 fold | B10
9 fold | B11
13 fold | B12
66 fold | B13
21 fold | B14

These binders were tested against human MSR1 endogenously expressed on PMA-differentiated THP-1 cells (human) (UniProt P21757) (assay: imaging of PMA-differentiated THP-1 cells, 10 ug/mL antibody, Alexa 488 secondary).
Sequence of human MSR1 endogenously expressed on PMA-differentiated THP-1 cells (human) (P21757 whole entry): as above

Total Binding at 4° C. | Total Binding at 37° C. | Binder
1.8e+06 RFU | 4.11e+06 RFU | B1
1.93e+06 RFU | 6.61e+06 RFU | B6
1.95e+06 RFU | 5.45e+06 RFU | B8
3.7e+06 RFU | 5.61e+06 RFU | B11
2.52e+06 RFU | 5.92e+06 RFU | B12
3.08e+06 RFU | 7.16e+06 RFU | B13
483000 RFU | 1.15e+06 RFU | B14
